{"source": "paper PMC9047069", "about": "“Multifaceted Activities of Seven Nanobodies against Complement C4b” (The Journal of Immunology Author Choice, 2022)", "key": {"[1]": {"target": "T1, human complement C4b (human, UniProt P0C0L4, biotin (EZ link Maleimide-PEG2-Biotin) coupled to its thiol group, only where C4b was held on the SPR chip)", "T1 construct": "beta chain (75 kDa) of human complement C4; alpha' chain (87 kDa) of human C4b, the alpha chain of C4 after removal of C4a; gamma chain (33 kDa) of human complement C4; One molecule for unlabelled C4b (SEC, cryo-EM, analyte in SPR), C4b biotinylated at the thiol (ligand in SPR) and C4b deposited on erythrocytes from serum; The CTC domain is not in the deposited models; source: bought: Complement …", "T1 sequence (P0C0L4 20-675, chain 1 of 3)": "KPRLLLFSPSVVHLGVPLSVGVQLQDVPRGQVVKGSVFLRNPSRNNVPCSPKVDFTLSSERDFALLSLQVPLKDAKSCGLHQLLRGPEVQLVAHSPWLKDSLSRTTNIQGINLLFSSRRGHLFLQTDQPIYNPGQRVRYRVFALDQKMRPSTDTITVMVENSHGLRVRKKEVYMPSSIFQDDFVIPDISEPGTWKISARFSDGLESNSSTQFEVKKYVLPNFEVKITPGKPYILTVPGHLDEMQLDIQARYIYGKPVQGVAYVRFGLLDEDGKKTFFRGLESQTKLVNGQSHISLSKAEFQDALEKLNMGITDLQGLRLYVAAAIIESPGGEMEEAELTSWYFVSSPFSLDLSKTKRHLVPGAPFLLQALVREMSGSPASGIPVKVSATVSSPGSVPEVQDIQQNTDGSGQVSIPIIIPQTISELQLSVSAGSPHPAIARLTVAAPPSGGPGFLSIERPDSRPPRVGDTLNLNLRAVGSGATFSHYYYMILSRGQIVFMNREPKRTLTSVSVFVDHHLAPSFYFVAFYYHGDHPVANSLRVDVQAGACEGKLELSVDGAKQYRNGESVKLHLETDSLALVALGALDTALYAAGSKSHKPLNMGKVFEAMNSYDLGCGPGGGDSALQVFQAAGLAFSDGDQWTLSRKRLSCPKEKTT", "T1 sequence (P0C0L4 757-1446, chain 2 of 3)": "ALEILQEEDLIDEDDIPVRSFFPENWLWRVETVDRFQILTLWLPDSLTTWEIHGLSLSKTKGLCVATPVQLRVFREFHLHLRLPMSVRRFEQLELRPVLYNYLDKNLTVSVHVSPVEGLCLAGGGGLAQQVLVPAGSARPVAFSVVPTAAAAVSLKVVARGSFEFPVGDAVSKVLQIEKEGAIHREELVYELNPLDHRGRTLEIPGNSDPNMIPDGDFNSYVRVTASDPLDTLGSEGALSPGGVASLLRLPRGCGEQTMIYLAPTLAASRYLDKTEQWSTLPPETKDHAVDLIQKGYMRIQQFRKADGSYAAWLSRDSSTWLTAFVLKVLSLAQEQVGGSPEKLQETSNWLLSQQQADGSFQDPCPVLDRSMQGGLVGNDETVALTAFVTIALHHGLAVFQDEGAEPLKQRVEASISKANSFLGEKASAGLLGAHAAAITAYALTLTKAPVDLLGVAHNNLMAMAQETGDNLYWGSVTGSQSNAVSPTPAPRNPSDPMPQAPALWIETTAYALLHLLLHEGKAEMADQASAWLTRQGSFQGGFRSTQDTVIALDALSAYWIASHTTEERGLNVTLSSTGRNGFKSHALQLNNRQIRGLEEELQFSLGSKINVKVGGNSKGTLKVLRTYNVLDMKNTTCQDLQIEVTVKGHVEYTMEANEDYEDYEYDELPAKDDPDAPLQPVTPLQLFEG", "T1 sequence (P0C0L4 1454-1744, chain 3 of 3)": "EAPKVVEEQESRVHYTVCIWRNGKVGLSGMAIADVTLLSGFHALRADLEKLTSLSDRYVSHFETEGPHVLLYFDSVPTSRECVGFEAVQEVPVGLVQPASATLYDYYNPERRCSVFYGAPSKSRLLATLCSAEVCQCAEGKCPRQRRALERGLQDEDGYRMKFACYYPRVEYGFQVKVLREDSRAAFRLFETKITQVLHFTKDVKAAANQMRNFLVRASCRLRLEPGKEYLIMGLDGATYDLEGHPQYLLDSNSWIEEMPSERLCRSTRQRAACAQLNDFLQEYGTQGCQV", "assay": "SPR; biotinylated nanobodies (100 nM) spotted on a streptavidin chip; kinetic titration with C4b as analyte, five-step twofold dilution without regeneration, last dissociation 1 h; 20 mM HEPES pH 7.4, 150 mM NaCl, 3 mM MgCl2; NbE11 and NbH11 fitted with mass transport; duplicate", "conditions": "both partners purified"}, "[2]": {"target": "T1, human complement C4b", "assay": "SPR; biotinylated C4b (50 nM) spotted on a planar streptavidin chip through its thiol group; nanobodies injected in a 14-step twofold dilution series; IBIS-MX96; 20 mM HEPES pH 7.4, 150 mM NaCl, 3 mM MgCl2; simple bimolecular model, NbE3 with mass transport; duplicate", "conditions": "both partners purified"}}}
{"binder": "NbB5 (VHH, Vector: modified pHEN6 with thrombin cleavage site and 6xHis, N-terminal pelB leader for periplasmic secretion; no cleavage of the tag is told; source: E. coli BL21 Codon Plus (DE3)-RIL, periplasm, purified (Ni-NTA, SEC)) VHH: EVQLVESGGGLVQPGGSLRLSCAASGFTFSSYHMSWVRQAPGKGLEWISVINDSGDLTRYADSVKGRFTISRDNAKNTLYLQMNSLQPEDTAVYSCLKSSDFYSYSNADSRGQGTQVTVSS", "values": [{"measurement": "Kd", "setting": "[1]", "result": "0.067 ± 0.006", "unit": "nM"}, {"measurement": "koff", "setting": "[1]", "result": "1.3e-05", "unit": "s⁻¹"}]}
{"binder": "NbB12 (VHH, Vector: modified pHEN6 with thrombin cleavage site and 6xHis, N-terminal pelB leader; no cleavage of the tag is told; also called NbB12-AF488; source: E. coli BL21 Codon Plus (DE3)-RIL, periplasm, purified (Ni-NTA, SEC)) VHH: EVQLVESGGGLVQAGGSLRLSCVASERTYMAWFRQAPGKEREFVAAITSSGMMTEYAPSVKGRFTISRDNAKNTVYLQMNSLKPEDTAVYYCAADLRQRFGERVTEYDYWGQGTQVTVSS", "values": [{"measurement": "Kd", "setting": "[1]", "result": "0.014 ± 0.004", "unit": "nM"}, {"measurement": "koff", "setting": "[1]", "result": "3.8e-06", "unit": "s⁻¹"}]}
{"binder": "NbE3 (VHH, Vector: modified pHEN6 with thrombin cleavage site and 6xHis, N-terminal pelB leader; no cleavage of the tag is told; also called NbBE3; source: E. coli BL21 Codon Plus (DE3)-RIL, periplasm, purified (Ni-NTA, SEC)) VHH: EVQLVESGGGLVQAGGSLRLSCAASGSDFSANAVGWYRQAPGKQRVVVASISSTGNTKYSNSVKGRFTISRDNAKNTVYLQMNSLKPEDTAVYYCWLFRFGIENYWGQGTQVTVSS", "values": [{"measurement": "Kd", "setting": "[2]", "result": "0.318 ± 0.01", "unit": "nM"}, {"measurement": "koff", "setting": "[2]", "result": 0.0066, "unit": "s⁻¹"}]}
